Assay results as given in paper PMC8395497.

Key:
[1] = target: Halichondria panicea ferritin HpF1 (Halichondria panicea (endogenous in sponge body tissue)); assay: native gel or EMSA; sponge body tissue homogenates (20 mM EDTA, 50 mM Hepes-Na pH 7.2, 200 mM NaCl, 4 °C) on a native 3.5-10% polyacrylamide gradient gel in 50 mM Bis-Tris-glycine pH 8.0; Prussian blue staining and UV 360 nm absorbance; markers horse ferritin (440 kDa) and thyroglobulin (670 kDa); high molecular mass bands cut out and identified by MALDI/TOF mass spectrometry
[2] = target: Halisarca dujardini ferritin HdF1a/b (Halisarca dujardini (endogenous in sponge body tissue)); assay: as above

## Halichondria panicea ferritin HpF1 (natural protein)
[1]
  stoichiometry N: 24 subunits

## Halisarca dujardini ferritin HdF1a/b (natural protein)
[2]
  stoichiometry N: 24 subunits
